Our source for the Kd and koff values is PMC12417186.

The target of test [1] is C3b purified from plasma of donor D2 by the novel direct method (human) (UniProt P01024). In words: SPR; C3b biotinylated at the thioester sulfhydryl, immobilised on SA sensor chip (950-1050 RU); analytes injected 2 min at 30 µl/min; 25°C; PBS, 0.05% Tween20, 1 mM MgCl2; 1:1 steady-state model; Biacore X100.
The target of test [2] is C3b purified from plasma of donor D1 by the novel direct method (human) (UniProt P01024). The test is described as above.
Test [3] concerns the target C3b purified from plasma of donor D3 by the novel direct method (human) (UniProt P01024). Described as above.
Test [4] addresses C3b (commercial), Complement Technology (human) (UniProt P01024). The description is as above.
Test [5] has as its target C3b purified from plasma of donor D2 by the novel direct method (human) (UniProt P01024). The test can be described thus: SPR; on-chip convertase assay: 600 nM FB and 100 nM FD injected 3 min over biotinylated C3b on SA chip, 10 min dissociation; 25°C; PBS, 0.05% Tween20, 1 mM MgCl2; exponential decay fit of 200-780 s; mean of three curves; 'estimated'.
Test [6] addresses C3b purified from plasma of donor D1 by the novel direct method (human) (UniProt P01024). The description is as above.
In test [7] the target is C3b purified from plasma of donor D3 by the novel direct method (human) (UniProt P01024). The description is as above.
Test [8] deals with C3b (commercial), Complement Technology (human) (UniProt P01024). The test is described as above.

For the substance “complement receptor 1 (CR1) complement control protein (CCP) domains 15-17 (domain or fragment)”, the Kd (commonly the free concentration of one partner at which half of the binding sites on the other are occupied at equilibrium, for simple one-to-one binding) in test [1] is 650 nM; in test [2], 485 nM; in test [3] it was 438 nM; in test [4] it was 476 nM.

As to “Bb fragment of Factor B in the alternative pathway convertase C3bBb (from UniProt P00751 260-764) (domain or fragment)”, the koff (in general, the rate constant with which the complex falls apart) in test [5] was 0.002 s⁻¹; in test [6] it was 0.002 s⁻¹; in test [7], 0.0019 s⁻¹; in test [8], 0.0019 s⁻¹.

As for “variable domain of the complement receptor of the immunoglobulin superfamily (domain or fragment)”, the equilibrium dissociation constant (Kd) in test [1] is 944 nM; in test [2] it was 860 nM; in test [3], 795 nM; in test [4] it was 754 nM.

Take “complement Factor H CCPs 19-20 (domain or fragment)”: the Kd in test [1] was found to be 10400 nM; in test [2], 10500 nM; in test [3], 10600 nM; in test [4], 9300 nM.
